Here are results for one molecule from paper PMC9882600, “Asymmetric gating of a human hetero-pentameric glycine receptor” (Research Square, 2023).

Data set [1] deals with human glycine receptor β subunit, cryo-EM construct βem (human) (UniProt P48167). Put plainly: cryo-EM structure; α1emβem GlyR co-expressed and purified as a complex, 6 mg/ml in 20 mM Tris pH 8.0, 200 mM NaCl, 0.06% digitonin; vitrified without ligand (apo) or after 1 h with 2 mM glycine on ice (open, expanded-open, desensitized classes); ~3 mM fluorinated fos-choline 8 added before freezing.

Data set [2] deals with the molecule itself. Described as above.

human glycine receptor β subunit, cryo-EM construct βem (human), sequence (P48167 23-497): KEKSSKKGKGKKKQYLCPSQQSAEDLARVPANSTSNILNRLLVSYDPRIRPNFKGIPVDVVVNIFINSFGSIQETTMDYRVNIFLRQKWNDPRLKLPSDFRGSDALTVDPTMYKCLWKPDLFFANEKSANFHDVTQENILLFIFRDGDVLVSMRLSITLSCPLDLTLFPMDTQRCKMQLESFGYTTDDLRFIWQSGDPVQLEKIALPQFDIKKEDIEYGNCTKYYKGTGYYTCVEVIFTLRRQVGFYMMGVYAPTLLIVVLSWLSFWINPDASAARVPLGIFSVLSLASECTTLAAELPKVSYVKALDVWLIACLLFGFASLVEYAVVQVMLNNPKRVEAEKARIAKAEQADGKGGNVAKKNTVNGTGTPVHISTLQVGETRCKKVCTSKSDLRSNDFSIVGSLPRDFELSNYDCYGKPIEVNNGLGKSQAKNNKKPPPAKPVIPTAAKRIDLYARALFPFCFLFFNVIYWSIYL

B1: human glycine receptor α1 subunit, cryo-EM construct α1em (receptor)
chain: ARSAPKPMSPSDFLDKLMGRTSGYDARIRPNFKGPPVNVSCNIFINSFGSIAETTMDYRVNIFLRQQWNDPRLAYNEYPDDSLDLDPSMLDSIWKPDLFFANEKGAHFHEITTDNKLLRISRNGNVLYSIRITLTLACPMDLKNFPMDVQTCIMQLESFGYTMNDLIFEWQEQGAVQVADGLTLPQFILKEEKDLRYCTKHYNTGKFTCIEARFHLERQMGYYLIQMYIPSLLIVILSWISFWINMDAAPARVGLGITTVLTMTTQSSGSRASLPKVSYVKAIDIWMAVCLLFVFSALLEYAAVNFVSRQHKELLGSSGEEMRKLFIQRAKKIDKISRIGFPMAFLIFNMFYWIIYKIVRREDVHNQ
notes: glycine receptor α1 subunit, human, NCBI NP_001139512.1; residues before the M3/M4 loop stretch R316-P381 that was replaced by GSSG; the lists of unbuilt residues begin at A1 and give 367 aa in total; linker that replaces the M3/M4 loop residues R316-P381; residues after the replaced M3/M4 loop stretch, to Q429 (last residue named in the lists of unbuilt residues); Four copies stand in the …
Take B1: in data set [1], the stoichiometry N is 4 α1:β. The binding result in data set [2] was “binds”.
